Reference: patent US20150133524

Biological target: PDH E1α subunit (pyruvate dehydrogenase E1 alpha subunit, 41 kDa) (UniProt P35486)
Sequence (P35486 30-390): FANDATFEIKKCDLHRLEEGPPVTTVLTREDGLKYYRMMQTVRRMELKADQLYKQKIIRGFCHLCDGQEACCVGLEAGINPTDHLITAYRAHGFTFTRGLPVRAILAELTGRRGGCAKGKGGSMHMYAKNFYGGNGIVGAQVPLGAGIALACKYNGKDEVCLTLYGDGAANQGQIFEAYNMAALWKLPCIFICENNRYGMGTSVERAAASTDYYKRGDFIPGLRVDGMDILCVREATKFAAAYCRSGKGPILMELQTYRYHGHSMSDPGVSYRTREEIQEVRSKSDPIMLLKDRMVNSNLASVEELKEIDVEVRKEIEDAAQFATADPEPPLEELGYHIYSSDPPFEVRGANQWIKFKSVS

human PDK1 (pyruvate dehydrogenase kinase, isoenzyme 1), sequence (chain, as listed by the source): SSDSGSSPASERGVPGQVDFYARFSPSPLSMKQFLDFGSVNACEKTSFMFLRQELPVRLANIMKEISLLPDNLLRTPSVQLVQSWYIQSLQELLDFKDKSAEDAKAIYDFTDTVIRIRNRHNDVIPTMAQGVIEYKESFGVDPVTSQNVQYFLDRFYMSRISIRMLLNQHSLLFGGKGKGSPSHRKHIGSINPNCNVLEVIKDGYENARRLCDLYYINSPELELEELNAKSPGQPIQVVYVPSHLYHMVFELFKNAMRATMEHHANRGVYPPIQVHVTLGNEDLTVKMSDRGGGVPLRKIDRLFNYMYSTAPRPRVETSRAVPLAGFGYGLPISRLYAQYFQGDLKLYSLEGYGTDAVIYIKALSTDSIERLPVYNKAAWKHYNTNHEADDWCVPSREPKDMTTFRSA

human PDK1 (pyruvate dehydrogenase kinase, isoenzyme 1)
PDH E1α subunit phosphorylation (immunoblot after two-dimensional gel electrophoresis of lysates of Hif1a-/- MEFs with forced PDK1 expression against empty vector): This overexpression resulted in increased PDH E1α subunit phosphorylation
